According to patent US20230227838A1, “ENHANCED CELL SURVIVAL AGAINST BIOTIC AND ABIOTIC STRESSES THROUGH SALICYLICK ACID-INDUCED NPR1 CONDENSATES” (priority 2020, published 2023):

B1: HDA15, histone deacetylase 15 (protein, UniProt Q8GXJ1 1-552, looked up)
Histone deacetylase 15: MVVETIERSCEGSKRRHVNGGDIAVPCSGEECSNGDINVAPGVSAKRARVSREMTFEDIYGADALLNDDDDEDDDCDWEPVQAPMEFVKWCCVNCTMSNPGDMVHCCICGEHKESGILRHGYLASPFFKDTGLIEVEEKYGGSSSATSSTAVGFDERMLLHSEFEVKAQPHPERPDRLRAIAASLATAGVFPGRCLPINAREITKQELQMVHTSEHVDAVDTTSQLLYSYFTSDTYANEYSARAARLAAGLCADLATDIFTGRVKNGFALVRPPGHHAGVRHAMGFCLHNNAAVAALVAQAAGAKKVLIVDWDVHHGNGTQEIFEQNKSVLYISLHRHEGGNFYPGTGAADEVGSNGGEGYCVNVPWSCGGVGDKDYIFAFQHVVLPIASAFSPDFVIISAGFDAARGDPLGCCDVTPAGYSRMTQMLGDLCGGKMLVILEGGYNLRSISASATAVIKVLLGENPENELPIATTPSVAGLQTVLDVLNIQLEFWPSLAISYSKLLSELEARLIENKKNQMKRKVVRVPTWWKWGRKKLLYNFLSARMISRSK
B2: TCH4, XTH22, Xyloglucan endotransglucosylase/hydrolase family protein (protein, UniProt Q38857 22-284, looked up)
Xyloglucan endotransglucosylase/hydrolase protein 22: NFQRDVEITWGDGRGQIKNNGELLTLSLDKSSGSGFQSKNEYLFGKVSMQMKLVPGNSAGTVTTLYLKSPGTTWDEIDFEFLGNSSGEPYTLHTNVYTQGKGDKEQQFKLWFDPTANFHTYTILWNPQRIIFTVDGTPIREFKNMESLGTLFPKNKPMRMYSSLWNADDWATRGGLVKTDWSKAPFTASYRGFQQEACVWSNGKSSCPNASKQGTTTGSWLSQELDSTAQQRMRWVQRNYMIYNYCTDAKRFPQGLPKECLAA
B3: RPP5, Disease resistance protein (TIR-NBS-LRR class) (protein, UniProt F4JNB7 1-1449, looked up)
Disease resistance protein RPP5: MAASSSSGRRRYDVFPSFSGVDVRKTFLSHLIEALDGKSINTFIDHGIERSRTIAPELISAIREARISIVIFSKNYASSTWCLNELVEIHKCFNDLGQMVIPVFYDVDPSEVRKQTGEFGKVFEKTCEVSKDKQPGDQKQRWVQALTDIANIAGEDLLNGPNEAHMVEKISNDVSNKLITRSKCFDDFVGIEAHIEAIKSVLCLESKEARMVGIWGQSGIGKSTIGRALFSQLSIQFPLRAFLTYKSTSGSDVSGMKLSWEKELLSEILGQKDIKIEHFGVVEQRLKHKKVLILLDDVDNLEFLKTLVGKAEWFGSGSRIIVITQDRQFLKAHDIDLVYEVKLPSQGLALTMLCRSAFGKDSPPDDFKELAFEVAKLAGHLPLGLNVLGSSLRRRGKKEWMEMMPRLRNGLNGDIMKTLRVSYDRLHQKDQDMFLCIACLFNGFEVSYVKDLLEDNVGLTMLSEKSLIRITPDGHIEMHNLLEKLGREIDRAKSKGNPGKRQFLTNFEDIHEVVTEKTGTETLLGIRLPFEEYFSTRPLLIDKESFKGMRNLQYLKIGDWSDGGQPQSLVYLPLKLRLLDWDDCPLKSLPSTFKAEYLVNLIMKYSKLEKLWEGTLPLGSLKKMNLLCSKNLKEIPDLSNARNLEELDLEGCESLVTLPSSIQNAIKLRKLHCSGVILIDLKSLEGMCNLEYLSVDCSRVEGTQGIVYFPSKLRLLLWNNCPLKRLHSNFKVEYLVKLRMENSDLEKLWDGTQPLGRLKQMFLRGSKYLKEIPDLSLAINLEEVDICKCESLVTFPSSMQNAIKLIYLDISDCKKLESFPTDLNLESLEYLNLTGCPNLRNFPAIKMGCSDVDFPEGRNEIVVEDCFWNKNLPAGLDYLDCLMRCMPCEFRPEYLVFLNVRCYKHEKLWEGIQSLGSLEEMDLSESENLTEIPDLSKATNLKHLYLNNCKSLVTLPSTIGNLQKLVRLEMKECTGLEVLPTDVNLSSLETLDLSGCSSLRTFPLISKSIKWLYLENTAIEEILDLSKATKLESLILNNCKSLVTLPSTIGNLQNLRRLYMKRCTGLEVLPTDVNLSSLGILDLSGCSSLRTFPLISTNIVWLYLENTAIGEVPCCIEDFTRLRVLLMYCCQRLKNISPNIFRLRSLMFADFTDCRGVIKALSDATVVATMEDSVSCVPLSENIEYTCERFWGELYGDGDWDLGTEYFSFRNCFKLDRDARELILRSCFKPVALPGGEIPKYFTYRAYGDSLTVTLPRSSLSQSFLRFKACLVVDPLSEGKGFYRYLEVNFGFNGKQYQKSFLEDEELEFCKTDHLFFCSFKFESEMTFNDVEFKFCCSNRIKECGVRLMYVSQETEYNQQTTRSKKRMRMTSGTSEEYINLAGDQIVADTGLAALNMELSLGEGEASSSTSLEGEALSVDYMITKEQDEDIPFLDPVSDGTWRSFYSAE
B4: RPP1, Disease resistance protein (TIR-NBS-LRR class) family (protein, UniProt F4J339 1-1194, looked up)
Probable disease resistance protein RPP1: MGSVMSLGCSKRKATNQDVDSESRKRRKICSTNDAENCRFIQDESSWKHPWSLCANRVISVAAVALTNFRFQQDNQESNSSSLSLPSPATSVSRNWKHDVFPSFHGADVRRTFLSHIMESFRRKGIDTFIDNNIERSKSIGPELKEAIKGSKIAIVLLSRKYASSSWCLDELAEIMKCRQMVGQIVMTIFYEVDPTDIKKQTGEFGKAFTKTCRGKPKEQVERWRKALEDVATIAGYHSHSWRNEADMIEKISTDVSNMLNSFTPSRDFDGLVGMRAHMDMLEQLLRLDLDEVRMIGIWGPPGIGKTTIARFLFNQVSDRFQLSAIMVNIKGCYPRPCFDEYSAQLQLQNQMLSQMINHKDIMISHLGVAQERLRDKKVFLVLDEVDQLGQLDALAKETRWFGPGSRIIITTEDLGVLKAHGINHVYKVEYPSNDEAFQIFCMNAFGQKQPHEGFDEIAWEVTCLAGELPLGLKVLGSALRGKSKREWERTLPRLKTSLDGKIGSIIQFSYDVLCDEDKYLFLYIACLFNGESTTKVKELLGKFLDVKQGLHLLAQKSLISFDGERIHMHTLLEQFGRETSRKQFVHHGFTKRQLLVGARGICEVLDDDTTDSRRFIGIHLELSNTEEELNISEKVLERVHDFHFVRIDASFQPERLQLALQDLIYHSPKIRSLNWYGYESLCLPSTFNPEFLVELDMRSSNLRKLWEGTKQLRNLKWMDLSYSSYLKELPNLSTATNLEELKLRNCSSLVELPSSIEKLTSLQILDLENCSSLEKLPAIENATKLRELKLQNCSSLIELPLSIGTATNLKQLNISGCSSLVKLPSSIGDITDLEVFDLSNCSSLVTLPSSIGNLQNLCKLIMRGCSKLEALPININLKSLDTLNLTDCSQLKSFPEISTHISELRLKGTAIKEVPLSIMSWSPLADFQISYFESLMEFPHAFDIITKLHLSKDIQEVPPWVKRMSRLRDLSLNNCNNLVSLPQLSDSLDYIYADNCKSLERLDCCFNNPEIRLYFPKCFKLNQEARDLIMHTCIDAMFPGTQVPACFIHRATSGDSLKIKLKESPLPTTLRFKACIMLVKVNEELMSYDQTPMIVDIVIRDEHNDLKEKIYPSIYPSIYPLLTEHIYTFELDVEEVTSTELVFEFPQLNKRNWKIGECGILQRETRSLRRSSSPDLSPESSRVSSYDHCLRGD

target: sim3-GFP (Arabidopsis thaliana) (UniProt P93002); test: sim3-GFP IP, LC-MS/MS
Sequence (P93002 other isoform, or with tags, fused parts or gaps): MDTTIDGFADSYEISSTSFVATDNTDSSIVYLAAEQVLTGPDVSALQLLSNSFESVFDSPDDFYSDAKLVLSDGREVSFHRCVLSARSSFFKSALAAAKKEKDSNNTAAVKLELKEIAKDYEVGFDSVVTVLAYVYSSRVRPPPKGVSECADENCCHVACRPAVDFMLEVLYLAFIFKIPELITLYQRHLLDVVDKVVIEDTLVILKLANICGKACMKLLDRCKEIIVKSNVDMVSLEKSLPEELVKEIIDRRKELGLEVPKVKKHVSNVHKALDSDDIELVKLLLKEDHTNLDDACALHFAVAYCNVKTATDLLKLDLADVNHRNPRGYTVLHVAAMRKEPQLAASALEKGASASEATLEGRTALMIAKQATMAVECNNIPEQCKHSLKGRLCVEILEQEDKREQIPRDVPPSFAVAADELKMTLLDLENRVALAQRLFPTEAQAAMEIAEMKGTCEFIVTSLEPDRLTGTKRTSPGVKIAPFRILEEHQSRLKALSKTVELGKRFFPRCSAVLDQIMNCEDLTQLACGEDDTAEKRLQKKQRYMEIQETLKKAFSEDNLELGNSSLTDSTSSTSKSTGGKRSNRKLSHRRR

Molecule | Normalized Fold Change: SA vs Mock
NAD(P)-binding Rossmann-fold superfamily protein (AT4G13180) | 5.46 fold
NPR2, NPR1-like protein 2 (from UniProt Q9SZI3 1-600) | 16.7 fold
NPR3, NPR1-like protein 3 (from UniProt Q8L746 1-586) | 9.4 fold
NRP1, nodulin-related protein 1 | 14.3 fold
OPR1, 12-oxophytodienoate reductase 1 | 4110 fold
P-loop containing nucleoside triphosphate hydrolases superfamily protein (AT2G28620) | 7.17 fold
P-loop containing nucleoside triphosphate hydrolases superfamily protein (AT3G28510) | 6.35 fold
P-loop containing nucleoside triphosphate hydrolases superfamily protein (AT3G28540) | 9.62 fold
P-loop containing nucleoside triphosphate hydrolases superfamily protein (AT5G17760) | 4790 fold
PAD3, Cytochrome P450 superfamily protein (from UniProt Q9LW27 1-490) | 14.6 fold
PCNA2, proliferating cell nuclear antigen 2 | 2.83 fold
PLP2, phospholipase A 2A | 3.96 fold
PR1, pathogenesis-related gene 1 (from UniProt P33154 27-161) | 3.65 fold
PRH75, DEAD box RNA helicase (PRH75) | 5.9 fold
PTEN 2 | 2.24 fold
RD19A, Papain family cysteine protease | 3.14 fold
RHD3, Root hair defective 3 GTP-binding protein (RHD3) | 2.86 fold
RNA helicase family protein (AT1G27900) | 1960 fold
RNA helicase family protein (AT3G62310) | 7.18 fold
RNR1, ribonucleotide reductase 1 | 2180 fold
ROC3, rotamase CYP 3 | 5.75 fold

Molecule | Normalized Fold Change: SA vs Mock
S-adenosyl-L-methionine-dependent methyltransferases superfamily protein (AT1G55450) | 2.24 fold
S-adenosyl-L-methionine-dependent methyltransferases superfamily protein (AT2G32160) | 3.44 fold
SAG2, aleurain-like protease | 4.08 fold
SCPL27, serine carboxypeptidase-like 27 | 5810 fold
SIRANBP, Pleckstrin homology (PH) domain superfamily protein | 709 fold
SOUL-1, SOUL heme-binding family protein | 2.93 fold
SQE3, squalene epoxidase 3 | 50.1 fold
TOC34, translocon at the outer envelope membrane of chloroplasts 34 | 9.76 fold
TOC86, translocon at the outer envelope membrane of chloroplasts 159 | 3.61 fold
TPS10, trehalose phosphate synthase | 2100 fold
TTG1, Transducin/WD40 repeat-like superfamily protein (from UniProt Q9XGN1 1-341) | 3.34 fold
Transducin/WD40 repeat-like superfamily protein (AT3G15610) | 2.26 fold
Transducin/WD40 repeat-like superfamily protein (AT3G45620) | 3.67 fold
Transducin/WD40 repeat-like superfamily protein (AT3G50590) | 3400 fold
UBA1, ubiquitin-activating enzyme 1 (from UniProt P93028 1-1080) | 3.32 fold
UBQ6, ubiquitin 6 | 2.04 fold
WAK4, wall associated kinase 4 | 8.98 fold
B1 | 2570 fold
B2 | 102 fold
B3 | 3.79 fold
B4 | 13.7 fold
